Measurements as given in paper PMC7041945, “Misfolded proteins bind and activate death receptor 5 to trigger apoptosis during unresolved endoplasmic reticulum stress” (eLife, 2020).
Each block holds one binder with its values, some of them ahead of it. No end group written: not given here.

Tests used:
Conditions in all cases: both partners purified
[1] = target: T1, Fc-tagged DR5 ectodomain (long isoform) (human, UniProt O14763 56-210); assay: peptide or protein array; 18-residue peptides tiled on the array; 500 nM Fc-tagged DR5 ECD in 50 mM HEPES pH 7.2, 250 mM NaCl, 10% glycerol, 1 hr at room temperature; detected with anti-Fc
T1 construct: DR5 extracellular domain, long isoform; 55 kDa on SDS-PAGE by the legend; also called Fc-tagged DR5 ECD; Fc-tagged DR5L ECD; source: recombinant, generated and purified at Genentech Inc

[2] = target: T2, FLAG-tagged DR5 long isoform ECD (human); assay: SEC; 25 μM recombinant DR5L ECD alone or pre-incubated overnight at 4°C with 100 or 400 μM fluorescein-conjugated peptide or 25 μM TRAIL; SuperDex200 10/300 GL, 30 mM HEPES pH 7.2, 150 mM NaCl; fractions on SDS-PAGE, fluorescence scan and Coomassie
T2 construct: human DR5 ECD, long isoform, residues 72-213; Dimer without peptide by cross-linking; multimers with peptide; also called FLAG-tagged DR5L ECD; recombinant DR5L ECD; source: SF21 (baculovirus), secreted, purified (HisTrapFF, SuperDex200); not shown: FLAG, C-terminal, kept
T2 sequence (chain, as listed by the source): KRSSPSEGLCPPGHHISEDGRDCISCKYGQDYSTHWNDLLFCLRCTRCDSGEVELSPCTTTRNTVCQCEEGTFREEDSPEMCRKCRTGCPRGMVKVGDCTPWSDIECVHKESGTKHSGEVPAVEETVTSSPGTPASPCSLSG

[3] = target: T1, Fc-tagged DR5 ectodomain (long isoform); assay: pull-down; Fc-tagged ECD held on Dynabeads Protein G, incubated with peptide in 20 mM HEPES pH 7.2, 100 mM KOAc, 0.2% Tween-20, 1 hr at RT; Coomassie-stained SDS-PAGE

binding result [1]: binds
B1: MPZ-ecto peptide (peptide)
peptide: FTWRYQPEGGRDAISIFHYA
notes: stretch of the ectodomain of human myelin protein zero; The array spots are 18-residue peptides; also called spots C18-C19 of the peptide array; source: synthetic peptide, GenScript (>95% purity); as spots C18-C19 on the peptide array of the MIT Biopolymers Laboratory

binding result [2]: binds
B2: fluorescein-conjugated MPZ-ecto peptide (peptide)
peptide: FTWRYQPEGGRDAISIFHYA
modifications: also: fluorescein-conjugated, site not given here
notes: stretch of the ectodomain of human myelin protein zero; also called fluorescein-labeled MPZ-ecto peptide; source: synthetic peptide

binding result [3]: binds
B3: MPZ-ecto^VD peptide (peptide)
peptide: VSDDISFTWRYQPEGGRD
notes: stretch of the ectodomain of human myelin protein zero; source: synthetic peptide, GenScript (>95% purity)
